Measured values from patent US20190119696A1 (YEDA RESEARCH AND DEVELOPMENT, published 2019).

Target: T1, APS1 (small subunit of ADP-glucose pyrophosphorylase, AGPase; AT5G48300), endogenous in Arabidopsis plants (Arabidopsis thaliana, UniProt P55228 72-520, limits assumed)
T1 construct: Endogenous plant protein
T1 sequence (looked up): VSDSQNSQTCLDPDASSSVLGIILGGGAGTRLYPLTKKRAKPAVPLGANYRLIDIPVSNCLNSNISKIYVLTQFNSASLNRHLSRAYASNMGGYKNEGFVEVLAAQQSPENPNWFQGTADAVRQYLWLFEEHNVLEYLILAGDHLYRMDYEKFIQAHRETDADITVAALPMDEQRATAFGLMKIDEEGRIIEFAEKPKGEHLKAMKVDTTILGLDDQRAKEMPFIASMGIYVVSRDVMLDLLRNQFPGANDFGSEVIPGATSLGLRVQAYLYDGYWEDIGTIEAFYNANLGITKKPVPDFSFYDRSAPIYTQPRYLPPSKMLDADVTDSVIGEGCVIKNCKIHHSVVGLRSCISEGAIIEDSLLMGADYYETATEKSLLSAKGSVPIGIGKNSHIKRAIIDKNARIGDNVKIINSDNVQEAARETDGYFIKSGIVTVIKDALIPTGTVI
Assay: in planta trapping of intermolecular disulfide reaction intermediates; non-reducing SDS-PAGE, anti-HA immunoblot

B1: ACHT4ΔC (Arabidopsis ACHT4 lacking the 47-amino acid C-terminus), fused to the HA3 affinity tag (enzyme, not shown: small tags and cut ends)
chain: SSAITAQTTLRIGTAQKWWEKGLKDNMREISSAQELVDSLTNAGDKLVVVDFFSPGCGGCKALHPKICQFAEMNPDVQFLQVNYEEHKSMCYSLGVHVLPFFRFYRGSQGRVCSFSCTNATIKKFRDALAKHGPDRCSLGPTKGLEEKELVALAAN
notes: also called AtACHT4ΔC; AtACHT4-C-Del
**Q.** Does B1 bind?
**A.** no binding
